Laboratory results taken from PMC11259132, “Tyrosine phenol-lyase inhibitor quercetin reduces fecal phenol levels in mice” (PNAS Nexus, 2024).

Substrate: N[C@@H](Cc1ccc(O)cc1)C(=O)O
Assay: enzyme kinetics (Km), phenol by LC-MS
Assay type: biochemical, Morganella morganii
Conditions: pyridoxal […]'-phosphate (PLP)

B1: Tyrosine phenol-lyase (TPL) (Morganella morganii subsp. morganii KT) (protein)
chain: MMYPAEPYRIKSVETVSMIPREERIKRMKEAGYNTFLLNSKDVYVDLLTDSGTNAMSDKQWAGMMMGDEAYAGSENFFHLERTVQELFGFKHIVPTHQGRGAENLLSSLAIKPGQYVAGNMYFTTTRYHQEKNGATFIDIVRDEAHDAGLDVKFKGNIDIKKLEKLIAEKGAENIAYICLAVTVNLAGGQPVSMANMREVRQLCDKHGIKVFYDATRCVENAYFIKEQEEGFEDVSIKDIVHEMFSYADGCTMSGKKDCLVNIGGFLCMNDDDMFSAARELVVVYEGMPSYGGLAGRDMEAMAIGLREAMQFEYIEHRVKQVRYLGEKLKAAGVPIVEPVGGHAVFLDARRFCPHLTQDEFPAQSLAASIYMETGVRSMERGIISAGRNKETGDHHRPKLETVRLTIPRRVYTYAHMDLVADGIIKLFKHKEDIKGLKFVYEPKQLRFFTARFDYV
notes: recombinant TPL from M. morganii ssp. morganii (JCM1672), pET-15b
- Km: 270 µM
